Assay results as given in patent US8124332B2, “Methods of using sIP-10, CD26 inhibitors and CXCR3 levels in a sample to assess clearance of infection, response to interferon therapy, and treating chronic infections” (Institut Pasteur, priority 2006, dated 2012).

What was measured:
CXCR3 [1] = molecular target: T1, CXCR3 (Homo sapiens, UniProt P49682); assay: Ca++ flux in CHO cells transfected with a CXCR3 expressing plasmid; type: cell-based; set-up: transfected with a plasmid encoding the full-length open reading frame of CXCR3; expressed in transfected cells; plasmid from Dr. C P Tensen, Leiden
T1 sequence (P49682 1-368): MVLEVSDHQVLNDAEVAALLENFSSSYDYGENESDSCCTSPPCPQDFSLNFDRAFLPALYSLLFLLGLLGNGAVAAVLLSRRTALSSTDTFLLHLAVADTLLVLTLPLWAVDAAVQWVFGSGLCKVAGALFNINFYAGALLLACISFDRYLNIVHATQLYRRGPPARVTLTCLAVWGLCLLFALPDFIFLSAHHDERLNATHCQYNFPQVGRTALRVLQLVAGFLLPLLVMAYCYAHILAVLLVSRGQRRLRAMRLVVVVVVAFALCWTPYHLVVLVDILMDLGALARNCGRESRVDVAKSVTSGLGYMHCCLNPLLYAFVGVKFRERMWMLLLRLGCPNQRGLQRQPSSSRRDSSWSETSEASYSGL
Source text: In order to test the hypothesis, it was necessary to generate novel reagents. First, recombinant full length CXCL10 (1-77) was exposed to recombinant DPP4 and cleavage was monitored by SELDI mass spectroscopy (FIG. 18A). […] Next, the inventors performed in vitro studies confirming that CXCL10 (1-77) but not CXCL10 (3-77) is capable of: (i) directing the migration of CXCR3^+ cells (FIG. 18B); (ii) mediating receptor internalization in primary PBMCs (not shown); and (iii) triggering a Ca^++ flux in CHO cells transfected with a CXCR3 expressing plasmid (FIGS. 18C, 18D). […] To date, however, there has been no in vivo evidence to support a role for CXCL10 antagonism in disease pathogenesis. […]
To generate CXCL10 (3-77), recombinant human CXCL10 (Peprotech, Rocky Hill, N.Y. USA) was incubated with recombinant DPP4 (Sigma) in a 100 mM Tris-HCL pH 8 solution, for 2 h at 37° C. […] Arrays were incubated and washed as per manufacturers instructions and analyzed using the ProteinChip System Series 4000 (Ciphergen). […] Data were analyzed using CiphergenExpress Software. […] Lymphocytes were allowed to migrate for 2 hours at 37° C. and cells in the bottom chamber were counted using a Guava cytometer (Guava Technologies, C A, USA). Calcium-flux assays: Increased intracellular [Ca^2+] in response to CXCR3 signaling were monitored by FACS. […] Ca^++ release was measured using a Canto II Cytometer. […]

[2] = system: plasma DPP activity (X-prolyl DPP); details: plasma of patients with HCV infection
CXCR3+ cells = assay: Lymphocyte chemotaxis assay; type: cell-based, human; details: PHA-T blasts, chemokine in bottom chamber, 2 hours at 37° C.
CXCR3 [3] = molecular target: T1, CXCR3; assay: Receptor internalization in primary PBMCs; type: cell-based; set-up: endogenous in cells; host or cells: primary PBMCs
Source text: In order to test the hypothesis, it was necessary to generate novel reagents. First, recombinant full length CXCL10 (1-77) was exposed to recombinant DPP4 and cleavage was monitored by SELDI mass spectroscopy (FIG. 18A). […] Next, the inventors performed in vitro studies confirming that CXCL10 (1-77) but not CXCL10 (3-77) is capable of: (i) directing the migration of CXCR3^+ cells (FIG. 18B); (ii) mediating receptor internalization in primary PBMCs (not shown); and (iii) triggering a Ca^++ flux in CHO cells transfected with a CXCR3 expressing plasmid (FIGS. 18C, 18D). […] To date, however, there has been no in vivo evidence to support a role for CXCL10 antagonism in disease pathogenesis. In part, the challenge in establishing in vivo evidence of this mechanism of immune regulation is due to the inability to discriminate the two forms of the chemokine by a sensitive, immune-based assay.

CXCL10 (3-77): NH2-terminal truncated CXCL10 generated by DPP4 cleavage of two amino acids, antagonist form
antagonism of CXCL10 (1-77) induced Ca++ mobilization (CXCR3 [1]; 5 min pre-treatment, then CXCL10 (1-77)): antagonized

isoleucine-proline-isoleucine [IPI]
inhibition of the enzymatic activity (plasma DPP activity) [2]: > 98%

CXCL10 (1-77): recombinant full length secreted human CXCL10, agonist form
directing the migration of CXCR3+ cells (CXCR3+ cells): capable | mediating receptor internalization (CXCR3 [3]): capable | triggering a Ca++ flux (CXCR3 [1]; CHO cells transfected with CXCR3): capable
